Source: patent US20220348686A1 (Memorial Sloan Kettering, published 2022)

Columns and labels:
Human STEAP1 [1] = target: T1, Human STEAP1 (human, UniProt Q9UHE8 1-339); experiment: flow cytometry on TC32 cells after repeated washes in PBS with 2 mM EDTA
T1 construct: Endogenous on Ewing's sarcoma cell lines (TC32 and others) and prostate cancer cell lines; as STP1h transfected into HEK293 cells with a lentiviral vector (GFP part of the transgene); also called STP1h
Procedure: Following binding of the primary antibody, cells were washed in PBS with 2 mM EDTA from 1 to 10 times. After each wash cells were stained with the secondary PE-conjugated goat anti-human IgG antibody and washed once with PBS for flow cytometry. Mean fluorescence intensity (MFI) was normalized to time 1 and depicted in FIG. 4B. While chimeric antibody dropped to below 50% after first wash, clones L1+H1, L1+H2, L1+H5 and L2+H2 remained above 50% through wash #8 and therefore scored as slow koff.
After initial staining (FIG. 4A), ten different clones, including the chimeric BsAb clone, were chosen for further study. To assess binding of these ten clones to TC32 cells, following incubation of the BsAbs, the cells were subjected to ten washes with PBS. An aliquot of the binding reaction after each wash was stained with a fluorochrome labelled anti-human secondary antibody. The extent of binding of the anti-STEAP1 BsAbs to TC32 cells was measured using flow cytometry.

Human STEAP1 [2] = target: T1, Human STEAP1; experiment: flow cytometry staining of TC32 cells with different doses

T1 sequence (Q9UHE8 whole entry): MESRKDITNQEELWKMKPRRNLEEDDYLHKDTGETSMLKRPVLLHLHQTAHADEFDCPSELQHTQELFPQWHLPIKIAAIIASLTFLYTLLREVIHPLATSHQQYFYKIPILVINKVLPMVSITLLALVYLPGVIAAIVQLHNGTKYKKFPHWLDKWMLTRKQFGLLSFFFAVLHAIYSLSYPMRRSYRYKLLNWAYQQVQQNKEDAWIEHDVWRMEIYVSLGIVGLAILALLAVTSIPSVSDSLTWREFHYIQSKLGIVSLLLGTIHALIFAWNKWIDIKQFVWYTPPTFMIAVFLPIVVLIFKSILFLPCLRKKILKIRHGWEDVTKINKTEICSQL

Row | Binder | Mean fluorescence intensity (MFI) normalized to time 1, through wash #8 (Human STEAP1 [1]) | binding result (Human STEAP1 [2])
1 | BC259 (VH-1+VL-1 BsAb variant) (bispecific antibody, V domains shown, One of the 24 humanized X120 versions; light chain extended by (G4S)3 linker and huOKT3 anti-CD3 scFv); also called L1+H1) VH: QVQVQESGPGLVKPSQTLSLTCTVTGYSITSDYAWNWIRQPPGKGLEWMGYISNSGSTSYNPSLKSRITISRDTSKNQFSLKLSSVTAADTAVYYCARERNYDYDDYYYAMDYWGQGTTLTVSA VL: not shown | > 50% | 
2 | BC260 (VH-2+VL-1 BsAb variant) (bispecific antibody, V domains shown, One of the 24 humanized X120 versions; light chain extended by (G4S)3 linker and huOKT3 anti-CD3 scFv); also called L1+H2) VH: DVQVQESGPGLVKPSQTLSLTCTVTGYSITSDYAWNWIRQPPGKGLEWMGYISNSGSTSYNPSLKSRITISRDTSKNQFSLKLSSVTAADTAVYYCARERNYDYDDYYYAMDYWGQGTTLTVSA VL: not shown | > 50% | 

Second part, the binder after the results:

Row | Mean fluorescence intensity (MFI) normalized to time 1, through wash #8 (Human STEAP1 [1]) | binding result (Human STEAP1 [2]) | Binder
3 |  | binds | humanized X120 clone L4+H2 (bispecific antibody, IgG1, V domains shown, One of the 24 humanized X120 versions; light chain with (G4S)3 linker and huOKT3 scFv)) VH: DVQVQESGPGLVKPSQTLSLTCTVTGYSITSDYAWNWIRQPPGKGLEWMGYISNSGSTSYNPSLKSRITISRDTSKNQFSLKLSSVTAADTAVYYCARERNYDYDDYYYAMDYWGQGTTLTVSA VL: not shown
4 |  | binds | humanized X120 clone L4+H1 (bispecific antibody, IgG1, V domains shown, One of the 24 humanized X120 versions; light chain with (G4S)3 linker and huOKT3 scFv)) VH: QVQVQESGPGLVKPSQTLSLTCTVTGYSITSDYAWNWIRQPPGKGLEWMGYISNSGSTSYNPSLKSRITISRDTSKNQFSLKLSSVTAADTAVYYCARERNYDYDDYYYAMDYWGQGTTLTVSA VL: not shown
5 |  | binds | humanized X120 clone L2+H1 (bispecific antibody, IgG1, V domains shown, One of the 24 humanized X120 versions; light chain with (G4S)3 linker and huOKT3 scFv)) VH: QVQVQESGPGLVKPSQTLSLTCTVTGYSITSDYAWNWIRQPPGKGLEWMGYISNSGSTSYNPSLKSRITISRDTSKNQFSLKLSSVTAADTAVYYCARERNYDYDDYYYAMDYWGQGTTLTVSA VL: not shown
